These sequences were tested against HLA-A*02:01 (assay: IEDB peptide-MHC binding, purified MHC/competitive/radioactivity; ≥ and ≤ were set here for values at or beyond the usual limits of such assays). Details: source organism: Vaccinia virus WR.

Sequence | IC50 [nM]
FMAYTTSHI | 3.2
ATNIFPFFV | 17
ILYLYETYHL | 9
ALNHLVLSL | 0.45
ILYAAFLWL | 112
FVCISYYFT | 994
KMEYNLYAEL | 297
MIDDSIEGI | 210
AVNEEWLTAV | 390
YLFGGFSTL | 0.87
KILAIIFLVL | 383
NLLSKNTFYL | 1.4
YMSFWCKSI | 26
RTFLIDLAFL | 6.6
VLPAVVYST | 113
YQDSDVSQEV | 12
LLVQRVTSV | 3.1
ILLFVIVIYI | 7.8
IIILAVLFI | 1660
FMYFCEQKL | 1.9
RTLLPILLL | 307
SIFGFQAEV | 0.54
GLVRLNAFL | 1.7
TLSRHIFMA | 6.2

Sequence | IC50 [nM]
MLLHVGIPL | 1.4
CQQKCDMPSL | 2370
IAISSLNKL | 1500
QMTSTFIML | 420
KLITSAFDLL | 457
AASSTHRKV | 2640
LITMLSIIL | 115
NTSWNDTVT | 146
NTFYLFTFTI | 55
ILLTLRMTQL | 366
KTMAVTYEL | 0.4
KIFYKHIHKI | 539
FVNKHLPTM | 1590
EIIPSSIPV | 4650
FLIDLAFLI | 0.041
LVASLNPNM | 387
IIDREVVANV | 63
VMTPSPFYT | 2660
DALATFTVNI | 178
YMDLSYHGV | 1.1
NLFDIPLLTV | 0.33
KLFTDNNFL | 2
VTLLCVLPA | 76
PIKFIAEFLV | 4460

Sequence | IC50 [nM]
YLYETYHLI | 2.4
LIVLFEVFV | 1930
LLIHFLLSL | 17
ILAIIFLVL | 131
NLLLWPLYV | 0.12
ALTIMGVIFL | 180
GLIIISIFL | 72
LLLDYMTST | 7
TTTSEVVDML | 2520
VILFIMFMLI | 384
LTFNFTPKI | 251
YISELYNKPL | 626
SMLGIWFFT | 0.65
ILMIFISSFL | 22
FTLTGSPSST | 4460
IVISPMGKL | 896
CMAFTIPSI | 0.9
ITLSLSKQDI | 211
SMLIEVILTA | 795
FIYLLFASM | 173
TMVDKPTEL | 185
SMDTLLFFL | 1
CLVVSTKGDV | 674
GLDVKNVQLV | 313

Sequence | IC50 [nM]
TMSAFLIVRL | 448
TISVVTLLCV | 3420
IVMDNDDNIL | 883
NLNIVRDML | 2760
KLDYWSFQL | 2.1
LTNVVNIST | 3980
NVYPGVWNT | 830
VLNIVLFIL | 393
NMQTVKLFV | 12
SLVEMMWDL | 11
DAIIDIEPDL | 2270
HIIIVALTIM | 1670
FTGITLFLL | 130
LVFIKPPLI | 55
GIYHDDLVV | 2830
LITLTNVVNI | 1060
VLLDYGLHGL | 1.3
LIVRYLIQV | 13
LAALFMYYA | 52
LMMSCISCI | 12
VLSNTSTAV | 16

Each sequence was assayed against HLA-A*02:02 in the same assay as above. Details: source organism: Hepatitis B virus.

Sequence | IC50 [nM]
GLSPTVWLSV | 23

Each sequence was assayed against HLA-A*02:03 in the same assay as above. Details: source organism: Hepatitis B virus.

Sequence | IC50 [nM]
SLNFLGGTTV | 0.67
SILSPFLPLL | 16
